For series [1], the target named is all forms of lysine-linked (isopeptide-linked) diubiquitin.
For series [2], the target named is Ubiquitin-AMC (Ub-AMC), P0CG48.
Ubiquitin-AMC (Ub-AMC), P0CG48, sequence (P0CG48 whole entry, looked up): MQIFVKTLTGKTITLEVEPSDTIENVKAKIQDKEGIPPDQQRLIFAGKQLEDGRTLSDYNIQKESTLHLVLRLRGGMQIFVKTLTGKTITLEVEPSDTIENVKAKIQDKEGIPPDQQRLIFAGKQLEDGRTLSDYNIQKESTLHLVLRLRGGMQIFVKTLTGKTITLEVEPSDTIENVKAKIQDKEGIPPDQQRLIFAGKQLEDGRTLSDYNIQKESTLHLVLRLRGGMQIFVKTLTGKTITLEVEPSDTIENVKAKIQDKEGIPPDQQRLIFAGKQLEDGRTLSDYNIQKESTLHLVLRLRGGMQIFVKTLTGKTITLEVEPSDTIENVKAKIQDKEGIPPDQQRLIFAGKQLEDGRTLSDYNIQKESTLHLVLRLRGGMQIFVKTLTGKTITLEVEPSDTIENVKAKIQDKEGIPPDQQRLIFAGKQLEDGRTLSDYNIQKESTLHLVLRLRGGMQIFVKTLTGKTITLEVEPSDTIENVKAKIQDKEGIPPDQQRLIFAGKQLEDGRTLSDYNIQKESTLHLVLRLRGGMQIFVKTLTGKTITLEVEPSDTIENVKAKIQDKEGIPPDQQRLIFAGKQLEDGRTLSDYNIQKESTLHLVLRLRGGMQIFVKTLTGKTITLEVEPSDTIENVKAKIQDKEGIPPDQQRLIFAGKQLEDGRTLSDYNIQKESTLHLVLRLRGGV

Nedd8-AMC, Q15843, sequence (Q15843 whole entry, looked up): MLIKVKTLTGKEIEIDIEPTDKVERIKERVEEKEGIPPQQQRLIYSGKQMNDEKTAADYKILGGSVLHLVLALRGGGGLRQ
SUMO2-AMC, P61956, sequence (P61956 1-93): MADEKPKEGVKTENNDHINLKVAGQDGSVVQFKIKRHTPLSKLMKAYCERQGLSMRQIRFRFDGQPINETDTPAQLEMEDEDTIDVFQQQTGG
ISG15-AMC, P05161, sequence (P05161 2-157): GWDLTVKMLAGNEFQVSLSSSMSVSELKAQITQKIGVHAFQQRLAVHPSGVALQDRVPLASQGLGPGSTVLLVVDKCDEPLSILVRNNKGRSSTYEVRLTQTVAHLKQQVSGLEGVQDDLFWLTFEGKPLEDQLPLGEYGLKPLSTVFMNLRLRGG
SUMO1-AMC, P63165, sequence (P63165 2-97): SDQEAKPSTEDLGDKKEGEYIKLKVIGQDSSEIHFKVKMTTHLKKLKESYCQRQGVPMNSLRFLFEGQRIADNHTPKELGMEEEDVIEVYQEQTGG

B1: CidB (CidB^wPip), full length (protein)
chain: MSNGDGLIRSLVDGDLEGFRQGFESFLDQCPSFLYHVSAGRFLPVFFFSMFSTAHDANILNANERVYFRFDNHGVNPRNGENRNTANLKVAVYRDGQQVVRCYSISDRPNSDGLRFSTRERNALVQEIRRQNPNLREEDLNFEQYKVCMHGKGKSQGEAIATVFEVIREKDRQGRDKFAKYSASEVHFLRQLFRNHRLTIKEIEGRQLNQNQLRQLGRSVNFTRVEPGQQRIDNFMEMLASNQRQDVRDSLRGDILEYVTDTYNNYRAQIENNIEGRSQKFESHGFLLGFLANFSHRYTIGVDLDLSPRNSHVAFLVRHQVERENIPIVINLATRAPPYIALNRARSHAERLHVFSFIPIHTESRNTVCVGLNFNLNLDPFSVDTVGLQQDRFPLVQRLFECLENEGIRENIRDFLLHHLPAEIPRNAENYDRIFDCITGFAFGNSAFDRHPLELEEEDEAPITKYIFRHGDEGLRCLTMVFHAEGSDIVILHIRAHDAQQQGAINLQTLNVNGNDVHVWEVSCTLNNQLELDIDLPNDLGLYHDYQNNNANNFLAGDLVQVPNTENVHNTLNQVVNDGWKNIAQHRGLFQEISGALMPLVDTINVNSEDKFRSILHGTFYASDNPYKVLAMYKVGQTYSLKRGQEEEGERVILTRITEQRLDLLLLRQPRENDLDTHPIGYVLRLANNAEEVGQQQNDARQEIGRLKKQHRGFIPITSGNEVVLFPIVFNRDAHEAGNLILFPEGIGREEHVHRLDRHVRSSRPGGLVGPESVIDENPPEGLLSDQTRENFRRFYEEKAPGQNSIFLLDIGDNLHVPFSYLQGTRAQVIETLKSRIRGGGTPTAQGILQQINAILRRNNAREIEDVHDLLALDFATDNQNYRYWLQTHDMFFAARQYTFLDNQSHSTNDHYGFEITSVGVDGNQNDPTGRGLLSSHITNFKQKVDSGEKDRLIAIINVGNRHWVTLVIVHQNGNYYGYYADSLGPDSGIDNNIRGALRECDINDDNVHNISVHQQTDGHNCGIWVYENARDINQAIDQALQGNNNFGEKGEGIIGYIRGLLSAGIGNDTRQPRRNEQYFEDRRRDISQLLQNDPNLPSRRSDLIQAHPGIQHEIDPLLLQFLGLQYPQRGGGGALQLGGERVISIDFGNPQSALDKIDGVSRVYNHSNSRGSR
Regarding B1, the “diubiquitin cleavage (panel digest)” value in series [1] is given as “Full length CidB cleaves all forms of lysine-linked (isopeptide-linked) diubiquitin, albeit with variable efficiency”.

B2: CidB^wMel (797-1128) (protein)
chain: QNSIFLLDIDDNLHVPFSYLQGTRAQAIETLRSRIRGGGTSTAQGILQQINTILRRNNAREIEDVHNLLALDFATENQNFRYWLQTHDMFFAARQYTFHDDRSNPTNDRHDFAITSVGVDGNQNDPTGRDLLSSNIDNFKQKVDSGEKDRLTAIINVGNRHWVTLVIVHQNGNYYGYYADSLGPDSRIDNNIRGALRECDISDDNVHDVSVHQQTDGHNCGIWAYENARDINQAIDQALQGNSNFGEKGEGIIGYIRGLLSAGIGNDTRQPQRNEQYFRNRRRNISQLFQNDSLSSPRGRLIQGRPGIQHEIDPLLLQFLELQYPQRGGGGA
In the case of B2, the “Ub-AMC hydrolysis (AMC release)” value in series [2] is “both CidB and CidB^wMel cleaved Ub-AMC, and to a much lesser extent, the UBL Nedd8-AMC”. The “Nedd8-AMC hydrolysis (AMC release)” value with Nedd8-AMC, Q15843 is “both CidB and CidB^wMel cleaved Ub-AMC, and to a much lesser extent, the UBL Nedd8-AMC”.

B3: CidB(762-1143) (protein)
chain: SSRPGGLVGPESVIDENPPEGLLSDQTRENFRRFYEEKAPGQNSIFLLDIGDNLHVPFSYLQGTRAQVIETLKSRIRGGGTPTAQGILQQINAILRRNNAREIEDVHDLLALDFATDNQNYRYWLQTHDMFFAARQYTFLDNQSHSTNDHYGFEITSVGVDGNQNDPTGRGLLSSHITNFKQKVDSGEKDRLIAIINVGNRHWVTLVIVHQNGNYYGYYADSLGPDSGIDNNIRGALRECDINDDNVHNISVHQQTDGHNCGIWVYENARDINQAIDQALQGNNNFGEKGEGIIGYIRGLLSAGIGNDTRQPRRNEQYFEDRRRDISQLLQNDPNLPSRRSDLIQAHPGIQHEIDPLLLQFLGLQYPQRGGGGALQLGGERV
In the case of B3, the “UBL-AMC hydrolysis (AMC release)” value in the series with SUMO1-AMC, P63165 was “Despite testing human ISG15-AMC and SUMO1/2-AMC with several concentrations of CidB (up to 400 nM), we failed to detect any AMC release”; with SUMO2-AMC, P61956, “Despite testing human ISG15-AMC and SUMO1/2-AMC with several concentrations of CidB (up to 400 nM), we failed to detect any AMC release”; in the series with ISG15-AMC, P05161 it was “Despite testing human ISG15-AMC and SUMO1/2-AMC with several concentrations of CidB (up to 400 nM), we failed to detect any AMC release”. In addition, the “catalytic efficiency for Ub-AMC relative to Nedd8-AMC” value in series [2] was “CidB^wPip catalytic efficiency for hydrolyzing Ub-AMC is 11-fold greater than for Nedd8-AMC”. In addition, the “kcat/KM for Ub-AMC hydrolysis” value in series [2] is reported as “the kcat/KM for Ub-AMC hydrolysis was 7.59 µM^-1 min^-1”. Also, in the series with Nedd8-AMC, Q15843, the “kcat/KM for Nedd8-AMC” value is given as “its kcat/KM for Nedd8-AMC was determined to be 0.69 µM^-1 min^-1”.

Values taken from US20240164355.
